The text below walks through data of publication PMC2945414.

Test [1] deals with PKA (RIIα), regulatory subunit of type II cAMP-dependent protein kinase, residues 2-44. As to the kind of experiment: ITC.
A further test deals with PKA (RIα) (Homo sapiens) (UniProt P10644). The note with it: cited from earlier work.
The target in test [2] is PKA (RIIα) (Homo sapiens) (UniProt P13861). The note with it: cited from earlier work.
For another test, the target named is FLAG-tagged PKA (RIIα) (UniProt P13861). As to the kind of experiment: co-IP.

Chain of D-AKAP2 (O43572 29-662): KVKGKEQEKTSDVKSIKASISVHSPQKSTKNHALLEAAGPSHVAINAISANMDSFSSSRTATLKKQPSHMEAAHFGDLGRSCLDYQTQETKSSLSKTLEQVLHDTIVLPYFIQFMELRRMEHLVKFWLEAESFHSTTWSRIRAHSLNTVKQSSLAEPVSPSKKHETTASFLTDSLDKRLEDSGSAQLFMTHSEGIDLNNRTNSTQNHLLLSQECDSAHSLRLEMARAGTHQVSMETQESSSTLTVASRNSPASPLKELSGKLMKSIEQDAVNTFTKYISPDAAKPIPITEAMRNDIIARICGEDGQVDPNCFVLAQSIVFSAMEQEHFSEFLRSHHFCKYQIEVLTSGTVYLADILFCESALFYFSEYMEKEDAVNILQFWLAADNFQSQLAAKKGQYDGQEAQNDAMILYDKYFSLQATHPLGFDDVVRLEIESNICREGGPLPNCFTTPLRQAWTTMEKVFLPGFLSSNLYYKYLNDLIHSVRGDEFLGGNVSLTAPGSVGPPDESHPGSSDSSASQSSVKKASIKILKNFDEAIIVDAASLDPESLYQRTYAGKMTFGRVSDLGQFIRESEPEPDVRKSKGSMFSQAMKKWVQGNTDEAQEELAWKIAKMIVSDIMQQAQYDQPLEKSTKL
Chain of PKA (RIα) (Homo sapiens) (P10644 whole entry): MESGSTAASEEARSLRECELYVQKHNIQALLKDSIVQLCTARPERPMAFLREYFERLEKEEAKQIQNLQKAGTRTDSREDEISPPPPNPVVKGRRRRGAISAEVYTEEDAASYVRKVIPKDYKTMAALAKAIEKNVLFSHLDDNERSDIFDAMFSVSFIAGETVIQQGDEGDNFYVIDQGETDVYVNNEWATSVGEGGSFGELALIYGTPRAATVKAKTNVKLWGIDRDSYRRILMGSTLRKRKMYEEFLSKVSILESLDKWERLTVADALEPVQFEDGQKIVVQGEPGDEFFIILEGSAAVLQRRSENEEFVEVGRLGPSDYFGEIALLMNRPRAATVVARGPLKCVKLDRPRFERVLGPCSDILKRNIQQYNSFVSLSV

Trx-NHR3(585-615) (domain or fragment) came in with a Kd in test [1] of 256 nM. Consider D-AKAP2 (from UniProt O43572), for which the Kd in the test with PKA (RIα) (Homo sapiens) is 48 nM; in test [2], 2 nM.

Take “Trx-NHR3(585-615) V604A (domain or fragment)”: the Kd in test [1] amounted to 383 nM.

In test [1], “AML1-ETO Nervy Homology Region 3 (NHR3) domain, residues A585-N654 (domain or fragment)” had a Kd of 67 nM and a stoichiometry N (NHR3 : PKA (RIIα) chains (1:2)) of 0.5. “Trx-NHR3(585-615) V601A (domain or fragment)” came in with a dissociation constant Kd in test [1] of 14000 nM. Trx-NHR3(585-654) (domain or fragment): in test [1], the Kd was 128 nM. “Trx-NHR3(585-615) W594A (domain or fragment)” yielded a Kd in test [1] of 909 nM.

Regarding AML1-ETO V601A (natural protein), the fold decrease of the interaction relative to AML1-ETO with FLAG-tagged PKA (RIIα) was determined as 2 fold.
